Like-named read-outs stand apart in the source and are kept apart here.

Common to all, as to experiment: SPR; Biacore T200; His-tagged receptors captured on an anti-histidine antibody CM5 chip (1-5 ug/mL, 30 uL/min); five concentrations (1:2 serial dilutions) of the PVR-Fc constructs flowed over, single-cycle kinetics; HBS-EP (20 mM HEPES pH 7.4, 150 mM NaCl, 0.005% Tween-20, 3.4 mM EDTA); 1:1 Langmuir model
In general terms: Surface plasmon resonance follows binding to a sensor surface in real time, without labels.

The target of test [1] is T1, recombinant mouse CD96-his (mouse, UniProt Q3U0X8 22-536).
T1 construct: mouse CD96 (TACTILE), recombinant; also called mCD96-his; mCD96; source: bought: Biolegend (788806)
T1 sequence (looked up): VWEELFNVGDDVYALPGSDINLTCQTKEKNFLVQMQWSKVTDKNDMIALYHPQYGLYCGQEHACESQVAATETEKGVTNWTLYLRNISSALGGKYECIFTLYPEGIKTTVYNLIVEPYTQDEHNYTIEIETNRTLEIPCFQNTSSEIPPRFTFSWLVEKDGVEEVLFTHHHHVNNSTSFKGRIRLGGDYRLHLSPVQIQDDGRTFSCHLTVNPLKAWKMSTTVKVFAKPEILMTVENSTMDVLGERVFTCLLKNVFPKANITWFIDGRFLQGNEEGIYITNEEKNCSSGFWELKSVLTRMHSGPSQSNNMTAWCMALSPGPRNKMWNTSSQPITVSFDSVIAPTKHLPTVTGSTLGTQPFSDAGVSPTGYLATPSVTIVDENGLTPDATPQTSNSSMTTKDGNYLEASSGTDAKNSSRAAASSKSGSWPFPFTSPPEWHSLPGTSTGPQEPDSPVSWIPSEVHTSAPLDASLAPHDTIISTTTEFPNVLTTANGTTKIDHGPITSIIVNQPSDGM

For test [2], the target named is T2, recombinant mouse CD226-his (mouse, UniProt Q8K4F0 19-254).
T2 construct: mouse CD226 (DNAM1), recombinant; also called mCD226-his; mCD226; source: bought: SinoBiological (50232-M08H)
T2 sequence (looked up): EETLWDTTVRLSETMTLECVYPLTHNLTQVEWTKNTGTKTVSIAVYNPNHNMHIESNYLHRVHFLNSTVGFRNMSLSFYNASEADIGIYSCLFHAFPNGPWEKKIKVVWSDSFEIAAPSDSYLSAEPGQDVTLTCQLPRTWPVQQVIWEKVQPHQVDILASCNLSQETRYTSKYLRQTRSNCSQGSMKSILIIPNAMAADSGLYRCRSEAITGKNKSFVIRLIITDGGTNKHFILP

For test [3], the target named is T3, recombinant mouse TIGIT-Fc-his (mouse, UniProt P86176 29-148).
T3 construct: mouse TIGIT (T-cell immunoglobulin and ITIM domain), recombinant; also called mTIGIT-Fc-his; mTIGIT; source: bought: Biolegend (771808)
T3 sequence (looked up): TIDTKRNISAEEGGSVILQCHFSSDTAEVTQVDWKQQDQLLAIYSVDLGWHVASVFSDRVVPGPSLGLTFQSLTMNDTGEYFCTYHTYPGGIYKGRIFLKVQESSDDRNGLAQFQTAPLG

In general, Kd refers to the constant that tells how readily two partners part at equilibrium. The term koff denotes the first-order rate constant of dissociation. What is called kon is the second-order rate constant of association. In the case of “full length PVR-Fc (full-length mouse PVR ECD-Fc) (Fc fusion)”, the Kd came out at 4.07 nM in test [1], 0.83 nM in test [2] and 2.26 nM in test [3]. Moreover, the koff in test [1] worked out at 0.00455 s⁻¹; in test [2], 0.00651 s⁻¹. The kon in test [1] came out at 1.17e+06 M⁻¹ s⁻¹; in test [2] it was 3.2e+06 M⁻¹ s⁻¹; in test [3], 2.25e+07 M⁻¹ s⁻¹.

B1: vdPVR-Fc (IgV-domain PVR-Fc) (Fc fusion, mouse, UniProt Q8K094 29-147, looked up)
chain: DIRVLVPYNSTGVLGGSTTLHCSLTSNENVTITQITWMKKDSGGSHALVAVFHPKKGPNIKEPERVKFLAAQQDLRNASLAISNLSVEDEGIYECQIATFPRGSRSTNAWLKVQARPKN
notes: murine PVR (poliovirus receptor, CD155), IgV domain of the extracellular domain, residues 29-147 of NP_081790.1; An Ig-kappa leader at the 5' end drives secretion; Migrates as a dimer (~94 kDa) without reducing agent; also called minimal murine PVR-Fc fusion construct; source: Expi293F cells, secreted, purified (protein A); not shown: Fc (human IgG1; P01857 residues 100-330; joined by linker …)
With B1, the Kd was determined as 1.72 nM in test [1] (both partners purified), 0.69 nM in test [2] (both partners purified) and 2.25 nM in test [3] (both partners purified). Also, the koff in test [1] (both partners purified) stood at 0.00286 s⁻¹; in test [2] (both partners purified), 0.00184 s⁻¹; in test [3] (both partners purified), 0.0656 s⁻¹. Further, the kon in test [1] (both partners purified) was determined as 3.52e+06 M⁻¹ s⁻¹; in test [2] (both partners purified) it was 2.67e+06 M⁻¹ s⁻¹; in test [3] (both partners purified), 2.92e+07 M⁻¹ s⁻¹.
